Experimental data as given in US11046945B2, “Labeled glutaminase proteins, isolated glutaminase protein mutants, methods of use, and kit” (CORNELL UNIVERSITY, priority 2013, dated 2021).
Changes are numbered by the printed parent chain. Names may count otherwise. Each block holds one molecule with its values, some of them ahead of it.

Biological target: T1, GAC (Mus musculus, UniProt D3Z7P3)
T1 construct: plasmid (residues 72-603 for GAC, 72-674 for KGA); His-tag with thrombin cleavage site (N, cleaved yes); made in house; host or cells: pET23a vector
T1 sequence (D3Z7P3 72-603 isoform D3Z7P3-2): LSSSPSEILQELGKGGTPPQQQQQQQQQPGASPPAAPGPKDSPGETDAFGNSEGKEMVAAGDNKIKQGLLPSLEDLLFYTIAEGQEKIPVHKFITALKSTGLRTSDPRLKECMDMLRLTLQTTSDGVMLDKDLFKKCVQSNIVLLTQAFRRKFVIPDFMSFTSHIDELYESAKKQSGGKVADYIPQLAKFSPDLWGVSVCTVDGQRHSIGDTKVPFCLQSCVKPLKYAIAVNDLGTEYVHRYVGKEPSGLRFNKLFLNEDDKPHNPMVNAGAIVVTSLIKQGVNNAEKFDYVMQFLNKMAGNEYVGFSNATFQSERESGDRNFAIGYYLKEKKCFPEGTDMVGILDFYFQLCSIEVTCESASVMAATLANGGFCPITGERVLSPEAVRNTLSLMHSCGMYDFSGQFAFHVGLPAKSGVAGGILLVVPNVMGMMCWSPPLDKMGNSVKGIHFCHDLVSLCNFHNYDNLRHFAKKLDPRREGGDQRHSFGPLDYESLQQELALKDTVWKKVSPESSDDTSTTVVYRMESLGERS
Assay: FRET assay of GAC tetramer formation (488-GAC donor, QSY 9-GAC acceptor)
Assay type: binding
Conditions: 200 nM QSY 9-labeled protein added to 20 nM 488-WT-GAC
Source text: A mouse kidney type glutaminase isoform 1 (KGA, NP_001074550.1, which is hereby incorporated by reference in its entirety (SEQ ID NO:7)) and isoform 2 (GAC, NP_001106854.1, which is hereby incorporated by reference in its entirety (SEQ ID NO:3)) plasmid (residues 72-603 for GAC, 72-674 for KGA) was cloned into a pET23a vector containing an N-terminal histidine (His)-tag and thrombin cleavage site. The expressed protein was initially purified using Co^2+ affinity beads (Clontech), after which the His-tag was cleaved with human thrombin (Haemetologic Technologies) overnight at 4° C. and subsequently purified by anion exchange (GE healthcare) and gel filtration chromatography. Purified GAC or KGA was stored in a high salt containing buffer (20 mM Tris-HCl pH 8.5, 500 mM NaCl, 1 mM NaN3) and stored at −80° C. following snap freezing in liquid N2 for long term use. For labeling recombinant GAC or KGA with small molecule probes, 1.5 mg of enzyme was exchanged to 50 mM HEPES pH 7.2, 100 mM NaCl using a PD10 desalting column (GE healthcare) and incubated with 50 μM (5-fold excess of enzyme) of either ALEXA FLUOR® 488 succinimidyl ester or QSY® 9 succinimidyl ester (Molecular Probes) for 1 hr at 4° C. After 1 hr, the labeling reaction was quenched with 150 mM Tris-HCl pH 8.5 and unreacted probe was separated from labeled-enzyme using a PD10 desalting column eluting labeled-GAC back into the high salt containing buffer.
Fluorescence experiments were performed using a Varian Carry Eclipse Fluorometer in the counting mode. Excitation and emission wavelengths were 490 and 520 nm, respectively. Experiments were all prepared as one-mL samples and stirred continuously at 20° C. in 50 mM Tris-Acetate pH 8.5, 0.1 mM ethylenediaminetetraacetic acid (EDTA). For WT GAC titrations in the absence of inorganic phosphate, 10 nM 488-GAC was equilibrated followed by injection of 25 μL of the appropriate concentration of QSY® 9-GAC and was allowed to equilibrate for 10 minutes at which point 75 μL of the appropriate concentration of unlabeled WT GAC was added to give a concentration that was ten-times that of labeled-GAC (i.e., 10-fold excess). For FRET experiments prepared for inorganic phosphate titrations, a similar protocol was followed whereby 10 nM of 488-GAC was equilibrated with 400 nM QSY® 9-GAC followed by injection of 100 μL of the appropriate concentration of K2HPO4 prepared in 50 mM Tris-Acetate (pH=8.5) 0.1 mM EDTA buffer. To test whether purified mutants can form oligomers with WT GAC, 200 nM QSY® 9-D391K-GAC or 200 nM QSY® 9-K316E-D391K-R459E was added to an equilibrated sample of 20 nM 488-WT GAC. Likewise, when assaying the effects of BPTES and 968 on oligomer formation, BPTES or 968 (10 μM or 25 μM, respectively) was added following equilibration of a sample of 200 nM of QSY® 9-WT GAC and 20 nM 488-WT GAC. Both BPTES and 968 were prepared in DMSO, and appropriate dilutions were made so that less than 2% (v/v) DMSO was added to an experimental sample.

EFRET max / energy transfer on addition to 488-GAC (WT): approximately 0.3
B1: QSY® 9-GAC (WT): wild type recombinant mouse GAC labeled with the non-fluorescent acceptor QSY 9 succinimidyl ester (protein)
chain: T1 sequence (D3Z7P3 72-603 isoform D3Z7P3-2)

EFRET max / energy transfer on addition to 488-GAC (WT): only a minor extent of FRET
B2: QSY® 9-GAC (D391K): QSY 9-labeled constitutive GAC dimer mutant D391K (protein)
chain: T1 sequence (D3Z7P3 72-603 isoform D3Z7P3-2) with D320K

EFRET max / energy transfer on addition to 488-GAC (WT): no observable energy transfer
B3: QSY® 9-GAC (K316E, D391K, R459E): QSY 9-labeled monomer GAC mutant K316E/D391K/R459E (protein)
chain: T1 sequence (D3Z7P3 72-603 isoform D3Z7P3-2) with K245E, D320K, R388E
